From publication PMC7870846, “Incorporation of sensing modalities into de novo designed fluorescence-activating proteins” (Nature Communications, 2021)

Columns and labels:
[1] = Ca2+-responsive mFAP Ca2+ titrations; format: binding; settings: in the presence of excess DFHBI
Experimental: In measuring Ca^2+ affinity of mFAPs on a Synergy Neo2 hybrid multi-mode reader (Fig. 4d, e, f and Supplementary Figs. 10c, f, i, 11c, f, i, 13c, f, i, 16b), large-scale purified proteins[49] were aliquoted in technical triplicate to a final concentration of 500 nM with 5.00 μM DFHBI in eleven serial dilutions ( 10 dilution factor) of CaCl2 (Sigma Aldrich) starting from either 900 mM or 90.0 mM CaCl2 (diluted using high-salt Tev cleavage buffer) including a twelfth condition without CaCl2. Final volumes were 200 μL in flat bottom, black polystyrene, non-binding surface 96-well microplates (Corning 3650). Fluorescence endpoints were measured using excitation wavelength λex = 484 nm and emission wavelength λem = 508 nm. Background fluorescence endpoints of wells with identical chromophore and CaCl2 concentrations lacking protein (substituted for equivalent volumes of high-salt Tev cleavage buffer) were measured in technical triplicate, averaged per condition, and subtracted from protein measurement averages of the same conditions.
For Ca^2+ titrations of EF4n_mFAP2a and EF4n_mFAP2b (Supplementary Fig. 13c), a small amount of Chelex 100 sodium form (Sigma Aldrich) was added to purified protein (produced by large-scale protein purification and SEC purification[49]) and nutated at 4 °C overnight. EF4n_mFAP2a was aliquoted in technical triplicate to a final concentration of 8.00 μM with 80.0 μM DFHBI and EF4n_mFAP2b was aliquoted in technical triplicate to a final concentration of 6.25 μM with 43.4 μM DFHBI, in eleven serial dilutions ( 10 dilution factor) of CaCl2 starting from 9.00 mM or 4.00 mM CaCl2 (diluted using high-salt Tev cleavage buffer pre-treated with Chelex 100) including a twelfth condition without CaCl2. Final volumes were 25.0 μL in flat bottom, black polystyrene, non-binding surface 96-well half-area microplates (Corning 3686) or 200 μL in flat bottom, black polystyrene, non-binding surface 96-well microplates (Corning 3650). Fluorescence endpoints were measured for EF4n_mFAP2a using excitation wavelength λex = 478 nm and emission wavelength λem = 520 nm, and for EF4n_mFAP2b using excitation wavelength λex = 484 nm and emission wavelength λem = 508 nm. Background fluorescence endpoints of wells with identical chromophore and CaCl2 concentrations lacking protein (substituted for equivalent volumes of high-salt Tev cleavage buffer) were measured in technical triplicate, averaged per condition, and subtracted from protein measurement averages of the same conditions. For non-linear least squares fitting to obtain Kd values, means were fit to a single-binding site isotherm function where Ca^2+-binding sites were modeled independently with a Hill coefficient of 1.

[2] = Ca2+-responsive mFAP DFHBI titrations; format: binding; settings: in the presence of excess Ca2+ (Kd+)
Experimental: Final volumes were 25.0 μL in flat bottom, black polystyrene, non-binding surface 96-well half-area microplates (Corning 3686) or 200 μL in flat bottom, black polystyrene, non-binding surface 96-well microplates (Corning 3650). Fluorescence endpoints were measured using excitation wavelength λex = 488 nm and emission wavelength λem = 510 nm. Background fluorescence endpoints of wells with identical chromophore concentrations lacking protein (substituted for equivalent volumes of high-salt Tev cleavage buffer) were measured and subtracted from protein measurements prior to normalization.
For DFHBI titrations of EF4n_mFAP2a and EF4n_mFAP2b (Supplementary Fig. 13a, b), a small amount of Chelex 100 sodium form (Sigma Aldrich) was added to purified protein (produced by large-scale protein purification and SEC purification[49]) and nutated at 4 °C overnight. […] Fluorescence endpoints were measured using excitation wavelength λex = 488 nm and emission wavelength λem = 510 nm for EF4n_mFAP2b, and excitation wavelength λex = 478 nm and emission wavelength λem = 520 nm for EF4n_mFAP2a. Background fluorescence endpoints of wells with identical chromophore concentrations lacking protein (substituted for equivalent volumes of Chelex 100 pre-treated high-salt Tev cleavage buffer) were measured and subtracted from protein measurements prior to normalization.

[3] = tested on: HEK293 cells; experiment: HEK293 cell surface-displayed Ca2+ titrations; format: cell-based; settings: Ca2+ from 0 to 10 mM; 7.00 µM DFHBI; extracellular display
Experimental: Plasmid DNAs (Supplementary Data 15 and Supplementary Data 17) were purified in ddH2O for transfections. pGP-CMV-GCaMP6f was a gift from Douglas Kim & GENIE Project (Addgene plasmid #40755; [http://n2t.net/addgene:40755]; RRID: Addgene_40755). Wild-type HEK293 cells (ATCC CRL-1573) were cultured on 24-well plates in DMEM media (4.5 g L^−1 D-glucose, L-glutamine; ThermoFisher #11965-092) supplemented with 10% FBS and 1% Penicillin/Streptomycin in a 5% CO2 atmosphere at 37 °C. Cells were seeded into 24-well plates (ThermoFisher #FB012929) at 100,000 cells well^−1. Twenty-four hours after seeding, cell media was aspirated and replaced with 200 μL of DMEM media. […]
Data analysis: Regions of interest (ROIs) surrounding single cells from three technical replicates were hand-drawn in ImageJ software. For each cellular ROI in each frame the average fluorescence was calculated in ImageJ. In order to perform background subtraction, cellular ROIs were then moved proximal to the original cell to an ROI where there was no fluorescence. Each cellular ROIs average fluorescence had the average background intensity subtracted for each frame. […]

Molecule	reduction of Ca2+ affinity compared with EF1p2_mFAP2b [1]	reduction of DFHBI affinity compared with EF1p2_mFAP2b [2]	fluorescence fold-change (ΔF/F0) [3]
EF1p2_mFAP2b (K101A): K101A lysine-to-alanine substitution in EF1p2_mFAP2b (protein) SRAAQLLPGTWQVTMTNEDGQTSQGQWHFQPRSPYTMDIVAQGTISDGRPIVGYGKATVKTPDTLDIDITYPSLGNIKAQGQITMDSPTQFKWDAHYKGDADGDGYISAAEAAAQGLTGTLQRQE	~ 29 fold	~ 21 fold	–
EF1p_mFAP2b: positively allosteric Ca2+-responsive mFAP, one EF-hand motif (protein) SRAAQLLPGTWQVTMTNEDGQTSQGQWHFQPRSPYTMDIVAQGTISDGRPIVGYGKATVKTPDTLDIDITYPSLGNIKAQGQITMDSPTQFKWDAHYKGDKDGDGYISAAEAAAQILTGTLQRQE	–	–	~ 0.5
